# Assay results as given in the RNAGym collection of RNA variant scans (doi:10.7554/elife.90254).
# B1: LINE1-mini (parent)
# chain: GGCAGAGCUCAACACAGCGUGGCAAAGUGGCUGUGGCUAGACUGCC
# Variants of: B1
# Experiment: self-cleavage, relative activity (ratio to wild type); higher = more cleavage; in vitro, sequencing; the parent is a self-cleaving ribozyme
row,Variant,self-cleavage
1,G5U C8G,0.14
2,G22C C46A,0.61
3,C3A G17U,0.2
4,U43G,0.12
5,C18A C45A,0.24
6,U20C A26U,0.68
7,A6C G30A,1.01
8,C10A A16U,0.05
9,C31G G44U,0.05
10,C8U C45A,0.21
11,C10G C45A,0.07
12,C15U C18G,0.07
13,C10A A24U,0.05
14,G19C C37A,0.04
15,G1U C23G,0.24
16,C23U C37A,0.04
17,C13A G30U,0.11
18,G2U U34A,0.04
19,G30U C46U,1.24
20,C31A U38A,0.12
21,C31G U32A,0.05
22,G1C C45A,0.16
23,U9G A11U,0.03
24,C15G U34G,0.02

row,Variant,self-cleavage
1,A14U C31U,0.04
2,C10G G35U,0.04
3,A14G G44U,0.19
4,G33C A39G,0.03
5,C18A A24G,0.56
6,C31U A41C,0.06
7,G7U U34C,0.09
8,C23U G44A,0.64
9,G1A U28A,0.26
10,C8G U9A,0.21
11,U34C U38G,0.06
12,G5U U28G,0.09
13,C3A G30A,1.1
14,C23U A26U,0.99
15,A4G G7U,0.18
16,C15A G29A,0.16
17,C37U C42G,0.03
18,C13U C46G,0.09
19,G22A A39C,0.09
20,U34G U43C,0.07
21,G33C U38C,0.04
22,A24C U38G,0.01
23,C13G A14G,0.08
24,C15A G35U,0.08

row,Variant,self-cleavage
1,G22U A41C,0.04
2,G7U A14C,0.09
3,G35C A39C,0.13
4,U28A U43C,0.09
5,G27C G30A,1.2
6,A12U G19U,0.19
7,C18U U38G,0.01
8,U28A U38A,0.38
9,G40A G44U,0.08
10,C10A A41G,0.03
11,A4U C31A,0.05
12,C13U C45G,0.06
13,A24C G33C,0.04
14,C13A U38C,0.1
15,U32C U43G,0.13
16,C18A U32C,0.16
17,G2C U20A,0.06
18,U20A G44U,0.2
19,G2U C45G,0.23
20,G7C G17U,0.09
21,G2U A11G,0.02
22,G35C C42U,0.05
23,G40A A41U,0.26
24,C10G G17C,0.23

row,Variant,self-cleavage
1,C8U A12G,0.08
2,U9A G27U,0.14
3,A26U,1.27
4,G21A C37A,0.08
5,C13U U38G,0.02
6,G17C C46A,0.64
7,G2C C15U,0.11
8,A11G U20A,0.04
9,G17C U34A,0.07
10,A16G A24U,0.62
11,A16G A24C,0.13
12,A4C U38A,0.12
13,G19U A39U,0.58
14,C3U G27U,0.41
15,A16C U20G,0.08
16,A6C U38C,0.21
17,C8A C15A,0.37
18,C13U A26C,0.24
19,G1U G40U,0.08
20,G21C G35U,0.16
21,G21A A25C,2.37
22,A16U C46U,0.1
23,A6U G44A,0.64
24,C23G A25G,1

row,Variant,self-cleavage
1,C18A G27C,0.62
2,C18A G40A,0.05
3,U28C C42A,0.16
4,G17C G19C,1.39
5,A12C A26U,0.03
6,C18A U38G,0.02
7,U9C C42U,0.04
8,G22A C42A,0.35
9,A4C C8U,0.22
10,G7A U43G,0.57
11,G22U C31G,0.22
12,G35C C37A,0.08
13,G1A U20A,1.27
14,U34A G44C,0.04
15,U38A A41C,0.04
16,G1A C45A,0.82
17,U9G G35U,0.07
18,C3U C15G,0.08
19,C23G U38C,0.42
20,G36C A41G,0.11
21,G1U A11C,0.03
22,U28G G44A,0.28
23,U32A C37A,0.04
24,C23G A39C,0.07

row,Variant,self-cleavage
1,A4U A41C,0.11
2,U38C A39U,0.7
3,U9G G30A,0.09
4,A11U G36A,0.02
5,G17C G27A,1.06
6,A14U G30U,0.19
7,C31A C42G,0.05
8,U9A A16U,0.06
9,G30A U34A,0.05
10,G29A A39G,0.07
11,A14C A39G,0.04
12,G5C C23G,0.04
13,G1A,1.11
14,C31A G33C,0.1
15,A4G G22C,0.91
16,G5C G27A,0.05
17,C10A G30A,0.1
18,C13U G40U,0.09
19,A12C A16U,0.01
20,G19C U43C,0.03
21,C15U U34A,0.08
22,G17A U34A,0.04
23,A26C G27U,0.46
24,A14C G27A,0.09

row,Variant,self-cleavage
1,C18U U32G,0.09
2,C13A C37A,0.09
3,C37G G40A,0.08
4,G7C C8A,0.32
5,A41G C46G,0.08
6,A16C G35C,0.06
7,G1A A25U,1.09
8,G19C A26C,0.68
9,U9C U34G,0.03
10,A6G U32G,0.07
11,G29U U34G,0.27
12,A11C A39U,0.03
13,A11C A39G,0.03
14,G17C A41G,0.27
15,C42G C46G,0.04
16,G19U G36U,0.04
17,G19U G36C,0.1
18,A24U C31G,0.08
19,U9A A25G,0.17
20,G5C G17C,0.03
21,G7U G40U,0.18
22,A4C A41C,0.12
23,C3A U20C,0.19
24,A6U U32G,0.13

row,Variant,self-cleavage
1,A12C C18A,0.03
2,C8G G44C,0.05
3,A39U,0.8
4,G19A U38G,0.02
5,A4C C15A,0.1
6,C8G C23A,0.1
7,G2U G29U,0.11
8,U32G C45A,0.1
9,A6G C23G,0.1
10,A16G G27C,0.17
11,C18U G35C,0.03
12,U9A C23A,0.14
13,A11C G35C,0.03
14,A14U A26U,0.53
15,G5C U43C,0.04
16,U43C G44U,0.09
17,A6C C37G,0.03
18,G30U C45A,0.49
19,G30U A39C,0.19
20,U28G G40U,0.09
21,C13A G17U,0.11
22,A11G G35C,0.02
23,C13A C15G,0.08
24,C10G A24U,0.15

row,Variant,self-cleavage
1,G17A C31G,0.08
2,C10G C37A,0.01
3,G35U C42G,0.05
4,G1U C13G,0.13
5,C18G C46G,0.25
6,A12C U28G,0.02
7,U9C G21C,0.06
8,A12U G17C,0.25
9,C23U G29U,0.85
10,U9A C31U,0.04
11,C8U U28A,0.19
12,A14U C46U,0.28
13,G17U C23A,0.21
14,C37A C42A,0.05
15,C3G A14U,0.32
16,C13G C42U,0.12
17,G17U C31A,0.88
18,C3A C8G,0.3
19,G27U G33A,0.09
20,C8A C46A,0.35
21,A6C A39G,0.1
22,G27A U43A,0.08
23,U9G A39G,0.08
24,U9G A39C,0.05

row,Variant,self-cleavage
1,A6G C13G,0.13
2,G35U G44C,0.07
3,C3U C42U,0.14
4,G36A U38G,0.03
5,C3G C37A,0.29
6,A41G U43G,0.05
7,U20A C46G,0.79
8,G5U U43C,0.06
9,A24U U34G,0.24
10,C10U C13A,0.06
11,G5A A6G,0.13
12,G1A G21U,1.38
13,G7A C45A,0.19
14,C23U U28G,0.6
15,G1C C23A,0.16
16,A4G A14G,0.2
17,C3G A12G,0.09
18,A16G U28A,0.53
19,G22A U43C,0.07
20,G5U C18A,0.07
21,U38A C42G,0.07
22,G5U G30U,0.26
23,A11U U38A,0.07
24,G19A U43A,0.15

row,Variant,self-cleavage
1,G22U A39G,0.08
2,A11C C18A,0.02
3,A6U G29A,0.79
4,C18G G29U,0.96
5,A41U C46G,0.57
6,C8A G36A,0.65
7,A39C C46G,0.17
8,G40U C45A,0.09
9,G17C A25U,0.87
10,G22U A26G,1.68
11,C13A C45A,0.08
12,A11C G44A,0.06
13,U38A C46U,0.3
14,A26U G44U,0.41
15,A12U G27U,0.23
16,G29C U38C,0.11
17,A24G C45U,1.23
18,G21A A24C,1.61
19,U32A G40U,0.16
20,C10U A12U,0.08
21,A6G U20G,0.13
22,A12C G21C,0.03
23,A11U U20G,0.16
24,G1A G5U,0.08

row,Variant,self-cleavage
1,C15U A16G,0.42
2,U34C G40U,0.1
3,U20G G29C,0.35
4,A24U G33A,0.05
5,A24U G33C,0.06
6,C3A C23G,0.45
7,A26C G40C,0.07
8,A39C A41G,0.1
9,G21U U34C,0.27
10,A25U C42G,0.06
11,A6U G17U,0.26
12,A12U A39G,0.08
13,U9G G36C,0.04
14,G44C C46A,0.1
15,U20A C23A,1.15
16,C8G G40A,0.13
17,A6U C42G,0.05
18,G5U A24U,0.08
19,A26G U32G,0.18
20,A14C,0.12
21,C15G G21C,0.17
22,U20A G35A,0.1
23,G35U C45G,0.07
24,C10G C23U,0.09

row,Variant,self-cleavage
1,G21A G44U,0.56
2,G17C A26C,1.18
3,G2C C37A,0.06
4,C13U G36C,0.11
5,C13U G36A,0.63
6,G22U C42A,0.28
7,C3U U9G,0.15
8,A6U U43A,0.13
9,A14C U20C,0.08
10,G40A C45G,0.13
11,G19U G30C,0.59
12,A4G G30A,1.37
13,U32A G36C,0.11
14,G21A U28G,1.2
15,A16C,0.11
16,G22A U28C,0.51
17,G22A U28A,0.4
18,C23G C31A,0.09
19,A4G G21U,0.68
20,G21U G30U,1
21,C3A A12U,0.57
22,A6C C23G,0.43
23,C8A A25G,0.23
24,U28G U32C,0.27

row,Variant,self-cleavage
1,A4G U32A,0.06
2,G5U A41U,0.08
3,A4G A24G,1.09
4,G1C G22U,0.17
5,U28G A39U,0.56
6,G2U G7C,0.04
7,G7U C8A,0.3
8,G1U G35C,0.07
9,A12C G44U,0.03
10,A12C G44A,0.03
11,A4U G7U,0.2
12,G5C G22A,0.08
13,A4U G22U,0.52
14,A14C A41U,0.06
15,U28G G29A,0.34
16,A39C U43A,0.04
17,C23G C37A,0.04
18,G7U C10G,0.03
19,A4C U20A,0.08
20,G17A G19U,0.25
21,G17A U20C,0.12
22,A4U G44U,0.25
